According to patent US20240261333A1, “NOVEL TARGETS FOR ENHANCING ANTI-TUMOR IMMUNITY” (THE BROAD INSTITUTE, INC., priority 2021, published 2024):

B1: CPT1A (protein)
chain: AEAHQAVAFQFTVTPDGIDLRLSHEALRQIYLSGLHSWKKKFIRFKNGIITGVYPASPSSWLIVVVGVMTTMYAKIDPSLGIIAKINRTLETANCMSSQTKNVVSGVLFGTGLWVALIVTMRYSLKVLLSYHGWMFTEHGKMSRATKIWMGMVKIFSGRKPMLYSFQTSLPRLPVPAVKDTVNRYLQSVRPLMKEEDFKRMTALAQDFAVGLGPRLQWYLKLKSWWATNYVSDWWEEYIYLRGRGPLMVNSNYYAMDLLYILPTHIQAARAGNAIHAILLYRRKLDREEIKPIRLLGSTIPLCSAQWERMFNTSRIPGEETDTIQHMRDSKHIVVYHRGRYFKVWLYHDGRLLKPREMEQQMQRILDNTSEPQPGEARLAALTAGDRVPWARCRQAYFGRGKNKQSLDAVEKAAFFVTLDETEEGYRSEDPDTSMDSYAKSLLHGRCYDRWFDKSFTFVVFKNGKMGLNAEHSWADAPIVAHLWEYVMSIDSLQLGYAEDGHCKGDINPNIPYPTRLQWDIPGECQEVIETSLNTANLLANDVDFHSFPFVAFGKGIIKKCRTSPDAFVQLALQLAHYKDMGKFCLTYEASMTRLFREGRTETVRSCTTESCDFVRAMVDPAQTVEQRLKLFKLASEKHQHMYRLAMTGSGIDRHLFCLYVVSKYLAVESPFLKEVLSEPWRLSTSQTPQQQVELFDLENNPEYVSSGGGFGPVADDGYGVSYILVGENLINFHISSKFSCPETGIISQGPSSDT
B2: C1orf68 (protein)
chain: MCDQQKQPQFPPSCVKGSGLGAGQGSNGASVKCPVPCQTQTVCVTGPAPCPTQTYVKYQVPCQTQTYVKCPAPCQRTYVKYPTPCQTYVKCPAPCQTTYVKCPTPCQTYVKCPAPCQMTYIKSPAPCQTQTCYVQGASPCQSYYVQAPASGSTSQYCVTDPCSAPCSTSYCCLAPRTFGVSPLRRWIQRPQNCNTGSSGCCENSGSSGCCGSGGCGCSCGCGSSGCCCLGIIPMRSRGPACCDHEDDCCC
B3: TM9SF1 (protein)
chain: PGVEGVTHYKAGDPVILYVNKVGPYHNPQETYHYYQLPVCCPEKIRHKSLSLGEVLDGDRMAESLYEIRFRENVEKRILCHMQLSSAQVEQLRQAIEELYYFEFVVDDLPIRGFVGYMEESGFLPHSHKIGLWTHLDFHLEFHGDRIIFANVSVRDVKPHSLDGLRPDEFLGLTHTYSVRWSETSVERRSDRRRGDDGGFFPRTLEIHWLSIINSMVLVFLLVGFVAVILMRVLRNDLARYNLDEETTSAGSGDDFDQGDNGWKIIHTDVFRFPPYRGLLCAVLGVGAQFLALGTGIIVMALLGMFNVHRHGAINSAAILLYALTCCISGYVSSHFYRQIGGERWVWNIILTTSLFSVPFFLTWSVVNSVHWANGSTQALPATTILLLLTVWLLVGFPLTVIGGIFGKNNASPFDAPCRTKNIAREIPPQPWYKSTVIHMTVGGFLPFRYPPFIPWLLLSGS
B4: RBM14 (protein)
chain: MKIFVGNVDGADTTPEELAALFAPYGTVMSCAVMKQFAFVHMRENAGALRAIEALHGHELRPGRALVVEMSRPRPLNTWKIFVGNVSAACTSQELRSLFERRGRVIECDVVKDYAFVHMEKEADAKAAIAQLNGKEVKGKRINVELSTKGQKKGPGLAVQSGDKTKKPGAGDTAFPGTGGFSATFDYQQAFGNSTGGFDGQARQPTPPFFGRDRSPLRRSPPRASYVAPLTAQPATYRAQPSVSLGAAYRAQPSASLGVGYRTQPMTAQAASYRAQPSVSLGAPYRGQLASPSSQSAAASSLGPYGGAQPSASALSSYGGQAAAASSLNSYGAQGSSLASYGNQPSSYGAQAASSYGVRAAASSYNTQGAASSLGSYGAQAASYGAQSAASSLAYGAQAASYNAQPSASYNAQSAPYAAQQAASYSSQPAAYVAQPATAAAYASQPAAYAAQATTPMAGSYGAQPVVQTQLNSYGAQASMGLSGSYGAQSAAAATGSYGAAAAYGAQPSATLAAPYRTQSSASLAASYAAQQHPQAAASYRGQPGNAYDGAGQPSAAYLSMSQGAVANANSTPPPYERTRLSPPRASYDDPYKKAVAMSKRYGSDRRLAELSDYRRLSESQLSFRRSPTKSSLDYRRLPDAHSDYARYSGSYNDYLRAAQMHSGYQRRM
B5: PUF60 (protein)
chain: MATATIALQVNGQQGGGSEPAAAAAVVAAGDKWKPPQGTDSIKMENGQSTAAKLGLPPLTPEQQEALQKAKKYAMEQSIKSVLVKQTIAHQQQQLTNLQMAAVTMGFGDPLSPLQSMAAQRQRALAIMCRVYVGSIYYELGEDTIRQAFAPFGPIKSIDMSWDSVTMKHKGFAFVEYEVPEAAQLALEQMNSVMLGGRNIKVGRPSNIGQAQPIIDQLAEEARAFNRIYVASVHQDLSDDDIKSVFEAFGKIKSCTLARDPTTGKHKGYGFIEYEKAQSSQDAVSSMNLFDLGGQYLRVGKAVTPPMPLLTPATPGGLPPAAAVAAAAATAKITAQEAVAGAAVLGTLGTPGLVSPALTLAQPLGTLPQAVMAAQAPGVITGVTPARPPIPVTIPSVGVVNPILASPPTLGLLEPKKEKEEEELFPESERPEMLSEQEHMSISGSSARHMVMQKLLRKQESTVMVLRNMVDPKDIDDDLEGEVTEECGKFGAVNRVIIYQEKQGEEEDAEIIVKIFVEFSIASETHKAIQALNGRWFAGRKVVAEVYDQERFDNSDLSA
B6: COPA (protein)
chain: MLTKFETKSARVKGLSFHPKRPWILTSLHNGVIQLWDYRMCTLIDKFDEHDGPVRGIDFHKQQPLFVSGGDDYKIKVWNYKLRRCLFTLLGHLDYIRTTFFHHEYPWILSASDDQTIRVWNWQSRTCVCVLTGHNHYVMCAQFHPTEDLVVSASLDQTVRVWDISGLRKKNLSPGAVESDVRGITGVDLFGTTDAVVKHVLEGHDRGVNWAAFHPTMPLIVSGADDRQVKIWRMNESKAWEVDTCRGHYNNVSCAVFHPRQELILSNSEDKSIRVWDMSKRTGVQTFRRDHDRFWVLAAHPNLNLFAAGHDGGMIVFKLERERPAYAVHGNMLHYVKDRFLRQLDFNSSKDVAVMQLRSGSKFPVFNMSYNPAENAVLLCTRASNLENSTYDLYTIPKDADSQNPDAPEGKRSSGLTAVWVARNRFAVLDRMHSLLIKNLKNEITKKVQVPNCDEIFYAGTGNLLLRDADSITLFDVQQKRTLASVKISKVKYVIWSADMSHVALLAKHAIVICNRKLDALCNIHENIRVKSGAWDESGVFIYTTSNHIKYAVTTGDHGIIRTLDLPIYVTRVKGNNVYCLDRECRPRVLTIDPTEFKFKLALINRKYDEVLHMVRNAKLVGQSIIAYLQKKGYPEVALHFVKDEKTRFSLALECGNIEIALEAAKALDDKNCWEKLGEVALLQGNHQIVEMCYQRTKNFDKLSFLYLITGNLEKLRKMMKIAEIRKDMSGHYQNALYLGDVSERVRILKNCGQKSLAYLTAATHGLDEEAESLKETFDPEKETIPDIDPNAKLLQPPAPIMPLDTNWPLLTVSKGFFEGTIASKGKGGALAADIDIDTVGTEGWGEDAELQLDEDGFVEATEGLGDDALGKGQEEGGGWDVEEDLELPPELDISPGAAGGAEDGFFVPPTKGTSPTQIWCNNSQLPVDHILAGSFETAMRLLHDQVGVIQFGPYKQLFLQTYARGRTTYQALPCLPSMYGYPNRNWKDAGLKNGVPAVGLKLNDLIQRLQLCYQLTTVGKFEEAVEKFRSILLSVPLLVVDNKQEIAEAQQLITICREYIVGLSVETERKKLPKETLEQQKRICEMAAYFTHSNLQPVHMILVLRTALNLFFKLKNFKTAATFARRLLELGPKPEVAQQTRKILSACEKNPTDAYQLNYDMHNPFDICAASYRPIYRGKPVEKCPLSGACYSPEFKGQICRVTTVTEIGKDVIGLRISPLQFR
B7: HNRNPH1 (protein, UniProt P31943 1-449, looked up)
Heterogeneous nuclear …: MMLGTEGGEGFVVKVRGLPWSCSADEVQRFFSDCKIQNGAQGIRFIYTREGRPSGEAFVELESEDEVKLALKKDRETMGHRYVEVFKSNNVEMDWVLKHTGPNSPDTANDGFVRLRGLPFGCSKEEIVQFFSGLEIVPNGITLPVDFQGRSTGEAFVQFASQEIAEKALKKHKERIGHRYIEIFKSSRAEVRTHYDPPRKLMAMQRPGPYDRPGAGRGYNSIGRGAGFERMRRGAYGGGYGGYDDYNGYNDGYGFGSDRFGRDLNYCFSGMSDHRYGDGGSTFQSTTGHCVHMRGLPYRATENDIYNFFSPLNPVRVHIEIGPDGRVTGEADVEFATHEDAVAAMSKDKANMQHRYVELFLNSTAGASGGAYEHRYVELFLNSTAGASGGAYGSQMMGGMGLSNQSSYGGPASQQLSGGYGGGYGGQSSMSGYDQVLQENSSDFQSNIA

Target: T1, B3GNT2 (Homo sapiens, UniProt Q9NY97)
T1 construct: The respective ORFs of candidate genes [CD274 (NM_014143), MCL1 (NM_021960), JUNB (NM_002229), and B3GNT2 (NM_006577)] were synthesized; expressed in transfected cells; host or cells: A375 melanoma cells (lentiviral ORF overexpression)
T1 sequence (Q9NY97 1-397): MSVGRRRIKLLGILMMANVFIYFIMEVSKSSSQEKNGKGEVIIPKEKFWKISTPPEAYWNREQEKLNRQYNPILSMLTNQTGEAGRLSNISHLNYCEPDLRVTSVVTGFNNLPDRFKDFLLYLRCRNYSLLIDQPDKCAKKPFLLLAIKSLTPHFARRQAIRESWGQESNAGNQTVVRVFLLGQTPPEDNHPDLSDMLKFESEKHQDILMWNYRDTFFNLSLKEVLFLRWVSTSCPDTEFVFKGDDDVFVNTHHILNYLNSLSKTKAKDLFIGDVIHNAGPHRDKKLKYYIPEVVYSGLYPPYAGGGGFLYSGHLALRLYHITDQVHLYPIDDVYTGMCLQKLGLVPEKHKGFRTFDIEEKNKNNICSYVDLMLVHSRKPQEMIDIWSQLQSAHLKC
Assay: Co-IP of FLAG-tagged B3GNT2 followed by mass spectrometry
Type: cell-based
Set-up: C-term IgG / C-term flag: unit not given here
Details: Co-IP followed by mass spectrometry of B3GNT2; for C-term flag / C-term IgG: C-term tag; for C-term flag / N-term FLAG: FLAG pull-down; for C-term IgG / N-term IgG: IgG pull-down; for N-term FLAG / N-term IgG: N-term tag
Method in brief: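 Co-purifying proteins were identified by fractionated nano-LC–MS/MS on an Orbitrap Elite, run data-dependent. Beforehand, lysates in 1% Triton X-100/HEPES buffer were incubated overnight at 4° C with anti-FLAG or […] and pulled down on Protein A/G magnetic beads for 4 h. Duplicate biological replicates.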

| Molecule | C-term flag | C-term IgG | N-term FLAG | N-term IgG |
| --- | --- | --- | --- | --- |
| B1 | 2 | 0 | 2 | 0 |
| B2 | 2 | 4 | 13 | 0 |
| B3 | 4 | 0 | 0 | 0 |
| B4 | 2 | 0 | 3 | 4 |
| B5 | 6 | 5 | 6 | 5 |
| B6 | 2 | 0 | 2 | 0 |
| B7 | 15 | 11 | 11 | 11 |
